In patent publication US20240301068A1 (BEIJING HANMI PHARMACEUTICAL, published 2024):
Like-named read-outs stand apart in the source and are kept apart here.

Experiments:
[1] = molecular target: recombinant rat PD-L1 (Sino Biological Inc.) (rat, UniProt D4AE25 19-239); experiment: ELISA, plate coated with 1 ug/mL recombinant rat PD-L1, anti-human IgG-HRP, OD450
Procedure: (§1) A 96-well high-adsorption ELISA plate was coated with 1 μg/mL of the recombinant human PD-L1, cynomolgus PD-L1, rat PD-L1 and mouse PD-L1 (all purchased from Sino Biological Inc.), at 100 μL per well using carbonate buffer solution, pH=9.6 at 4° C. overnight. The plate was washed 5 times with PBST, and then blocked using PBST with 1% BSA, 300 μL/well, and incubated at 25° C. for 1 hour, and then washed 5 times with PBST. The chimeric anti-human PD-L1 antibody samples serially diluted in PBST with 1% BSA were added, 100 μL/well, incubated at 25° C. for 1 hour, and then washed 5 times with PBST. The horseradish peroxidase-labeled anti-human IgG antibody (Chemicon, catalog number AP309P) diluted 1:10000 in PBST with 1% BSA was then added, 100 μL per well, and incubated at 25° C. for 1 hour. The plate was washed 5 times with PBST. The colorimetric substrate TMB was added, 100 μL/well, and developed at room temperature for 10 minutes. 1M H₂SO₄ was added, 100 μL/well, to stop the development. The absorbance at 450 nm was read on a microplate reader.

[2] = molecular target: T1, recombinant human PD-L1 (Sino Biological Inc.) (human, UniProt Q9NZQ7 19-239); experiment: SPR, Biacore X100
T1 sequence (Q9NZQ7 19-239 limits assumed): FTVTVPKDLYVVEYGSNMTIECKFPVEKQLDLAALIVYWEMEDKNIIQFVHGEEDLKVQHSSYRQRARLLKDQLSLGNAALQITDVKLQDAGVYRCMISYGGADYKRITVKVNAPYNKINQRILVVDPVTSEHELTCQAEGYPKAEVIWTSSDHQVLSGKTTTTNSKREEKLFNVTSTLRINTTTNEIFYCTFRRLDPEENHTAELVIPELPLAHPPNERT
Procedure: (§2) This instrument utilizes optical surface plasmon resonance technology to detect the association and dissociation between the molecules coated on the biochip and the molecules to be tested. Association constants and dissociation constants were analyzed and calculated by Biacore X100 evaluation software. […]

[3] = molecular target: T1, recombinant human PD-L1 (Sino …); experiment: SPR, Biacore X100; remark: listed apart in the source
Procedure: as §2

[4] = molecular target: T1, recombinant human PD-L1 (Sino …); experiment: PD-L1/CD80 blocking assay, competitor CD80, format not described
[5] = molecular target: recombinant human CD28 (Sino Biological Inc.) (human, UniProt P10747 19-152); experiment: ELISA, plate coated with 1 ug/mL recombinant human CD28, anti-human IgG-HRP, OD450; antibody concentration not shown
Procedure: (§3) The plate was washed 5 times with PBST, and then blocked using PBST with 1% BSA, 300 μL/well, and incubated at 25° C. for 1 hour, and then washed 5 times with PBST. […] The horseradish peroxidase-labeled anti-human IgG antibody (Chemicon, catalog number AP309P) diluted 1:10000 in PBST with 1% BSA was then added, 100 μL per well, and incubated at 25° C. for 1 hour. The plate was washed 5 times with PBST. The colorimetric substrate TMB was added, 100 μL/well, and developed at room temperature for 10 minutes. 1M H₂SO₄ was added, 100 μL/well, to stop the development. The absorbance at 450 nm was read on a microplate reader.

[6] = molecular target: T1, recombinant human PD-L1 (Sino …); experiment: direct binding ELISA, plate coated with 1 ug/mL recombinant human PD-L1, anti-human IgG-HRP, OD450; the curve rises, the sheet labels the half-maximal value IC50
Procedure: as §1, with “human” for “human PD-L1, cynomolgus PD-L1, rat”, “(Sino” for “and mouse PD-L1 (all purchased from Sino”, “Inc.)” for “Inc.),”, “The chimeric anti-human PD-L1 antibody samples serially diluted in PBST with 1% BSA were added, 100 μL/well, incubated at 25° C. for 1 hour, and then washed 5 times with PBST.” left out

[7] = molecular target: recombinant cynomolgus PD-L1 (Sino Biological Inc.) (cynomolgus, UniProt G7PSE7 19-238); experiment: ELISA, plate coated with 1 ug/mL recombinant cynomolgus PD-L1, anti-human IgG-HRP, OD450
recombinant cynomolgus PD-L1 (Sino Biological Inc.), sequence (G7PSE7 entry or part of it limits assumed): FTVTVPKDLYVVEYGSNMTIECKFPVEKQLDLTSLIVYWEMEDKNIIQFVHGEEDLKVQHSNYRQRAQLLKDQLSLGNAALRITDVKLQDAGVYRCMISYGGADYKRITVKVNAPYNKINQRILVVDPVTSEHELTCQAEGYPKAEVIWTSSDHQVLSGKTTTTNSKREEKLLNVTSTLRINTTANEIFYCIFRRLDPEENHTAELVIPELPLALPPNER
Procedure: as §1

[8] = molecular target: T1, recombinant human PD-L1 (Sino …); experiment: ELISA, human PD-L1 coated
Procedure: as §1, with “human” for “human PD-L1, cynomolgus PD-L1, rat”, “(Sino” for “and mouse PD-L1 (all purchased from Sino”, “Inc.)” for “Inc.),”, “The chimeric anti-human PD-L1 antibody samples serially diluted in PBST with 1% BSA were added, 100 μL/well, incubated at 25° C. for 1 hour, and then washed 5 times with PBST.” left out

[9] = molecular target: recombinant human PD1 (Sino Biological Inc.) (human, UniProt Q15116 25-167); experiment: ELISA, plate coated with 1 ug/mL recombinant human PD1, anti-human IgG-HRP, OD450; antibody concentration not shown
recombinant human PD1 (Sino Biological Inc.), sequence (Q15116 25-167 limits assumed): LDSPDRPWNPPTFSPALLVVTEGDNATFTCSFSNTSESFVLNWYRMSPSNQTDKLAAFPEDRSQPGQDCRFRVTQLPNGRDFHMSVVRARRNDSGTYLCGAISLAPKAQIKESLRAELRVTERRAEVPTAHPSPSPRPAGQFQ
Procedure: as §3

[10] = molecular target: T2, recombinant human CD80 (Sino Biological Inc.) (human, UniProt P33681 35-242); experiment: ELISA, plate coated with 1 ug/mL recombinant human CD80 (printed B7-1), anti-human IgG-HRP, OD450; antibody concentration not shown
T2 sequence (looked up): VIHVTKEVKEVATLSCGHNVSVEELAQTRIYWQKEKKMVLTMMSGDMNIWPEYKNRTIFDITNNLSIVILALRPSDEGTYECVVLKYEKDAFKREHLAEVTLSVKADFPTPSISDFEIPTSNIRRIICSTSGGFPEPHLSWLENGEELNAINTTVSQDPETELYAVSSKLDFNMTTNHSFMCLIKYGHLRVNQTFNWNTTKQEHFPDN
Procedure: as §3

[11] = molecular target: T1, recombinant human PD-L1 (Sino …); experiment: affinity determination (dissociation constant), method not stated
[12] = molecular target: recombinant mouse PD-L1 (Sino Biological Inc.) (mouse, UniProt Q9EP73 19-238); experiment: ELISA, plate coated with 1 ug/mL recombinant mouse PD-L1, anti-human IgG-HRP, OD450
recombinant mouse PD-L1 (Sino Biological Inc.), sequence (Q9EP73 19-238 limits assumed): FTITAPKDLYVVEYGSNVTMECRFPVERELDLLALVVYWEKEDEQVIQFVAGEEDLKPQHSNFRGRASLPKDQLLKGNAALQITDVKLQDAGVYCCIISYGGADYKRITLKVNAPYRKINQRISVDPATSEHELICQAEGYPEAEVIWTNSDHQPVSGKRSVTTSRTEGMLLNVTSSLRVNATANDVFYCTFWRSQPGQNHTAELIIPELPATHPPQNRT
Procedure: as §1

[13] = molecular target: recombinant human BTLA (Sino Biological Inc.) (human, UniProt Q7Z6A9 31-157, limits assumed); experiment: ELISA, plate coated with 1 ug/mL recombinant human BTLA, anti-human IgG-HRP, OD450; antibody concentration not shown
Procedure: as §3

recombinant rat PD-L1 (Sino Biological Inc.), sequence (D4AE25 entry or part of it limits assumed): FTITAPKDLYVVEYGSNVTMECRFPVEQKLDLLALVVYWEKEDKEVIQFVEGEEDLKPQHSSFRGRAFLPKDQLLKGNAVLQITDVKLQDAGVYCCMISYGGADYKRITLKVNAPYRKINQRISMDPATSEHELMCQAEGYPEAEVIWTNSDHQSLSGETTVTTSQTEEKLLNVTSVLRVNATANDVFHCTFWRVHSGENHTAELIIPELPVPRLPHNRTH

Kd [2]: 0.63 nM
koff [2]: 0.000596 s⁻¹
kon [2]: 946000 M⁻¹ s⁻¹
Kd [3]: 1.17 nM
koff [3]: 0.000594 s⁻¹
kon [3]: 507000 M⁻¹ s⁻¹
IC50 [4]: 0.762 nM
binding result [5]: no binding
EC50 [6]: 0.021 nM
EC50 [7]: 0.074 nM
EC50 [8]: 0.066 nM
binding result [9]: no binding
binding result [10]: no binding
koff [11]: 0.000531 s⁻¹
binding result [13]: no binding
B1: chimeric anti-human PD-L1 monoclonal antibody (antibody, human IgG1, kappa, V domains shown)
VH: EVQLQQSGAELVKPGASVKLSCTASGFNIEDTYIHWVMQRPEQGLEWIGRIDPANGNTKYDPKFQGKATITADTSSNTAYLQLSSLTSEDTAVYYCGRGLGAWFAYWGQGTLVTVSA
VL: DIVMTQSHKVMSTSVGDRVTITCKASQDVHTAVAWIHQKPGQSPKLLIYSASNRYTGVPDRFTGSGSGTDFTFTISSVQAEDLAVYYCQQHYITPLTFGAGTTLELKR
notes: expressed in ExpiCHO cells; also called Chimeric mAb; Chimeric antibody
binding result [1]: no binding (tested: about 20 nM (last point on the log axis))
binding result [12]: no binding (tested: about 20 nM (last point on the log axis))
